# Experimental data: the Human Domainome abundance scans (Beltran et al. 2025)
# ± gives the uncertainty stated by the source.
# B1: Tripartite motif-containing protein 49C, residues 87 to 133; numbered along this chain, P0CI26 (parent)
# chain: SSEEQMCGTHRETKKIFCEVDRSLLCLLCSSSQEHRYHRHRPIEWAA
# Variants of: B1
# Assay: abundance fitness (aPCA) (normalised: wild type 0, dead -1); higher = more abundant; growth selection in yeast, the domain comes from the species named
# Conditions: Homo sapiens
row,Variant,abundance fitness
1,H35C,-0.636 ± 0.12
2,H35W,-0.846 ± 0.14
3,H35G,-0.769 ± 0.094
4,H35M,-0.916 ± 0.17
5,H35Q,-1.09 ± 0.22
6,H35P,-0.676 ± 0.14
7,H35R,-0.799 ± 0.099
8,H35V,-0.892 ± 0.12
9,H35E,-0.997 ± 0.26
10,H35I,-0.882 ± 0.19
11,H35K,-0.929 ± 0.21
12,H35Y,-1.06 ± 0.16
13,H35L,-1.08 ± 0.14
14,H35D,-0.821 ± 0.17
15,H35T,-0.929 ± 0.16
16,H35F,-0.75 ± 0.16
17,H40D,-0.083 ± 0.19
18,H40C,-0.623 ± 0.15
19,H40Y,-0.888 ± 0.16
20,H40G,-0.468 ± 0.078
21,H40P,-0.767 ± 0.14
22,H40Q,-0.129 ± 0.12
23,H40T,-0.849 ± 0.14
24,H40I,-0.893 ± 0.25

row,Variant,abundance fitness
1,H40V,-0.439 ± 0.098
2,H40M,-0.633 ± 0.18
3,H40L,-0.551 ± 0.09
4,H40F,-0.709 ± 0.24
5,H40N,-1.27 ± 0.4
6,H40S,-0.298 ± 0.094
7,H40R,-0.563 ± 0.081
8,H40K,-0.908 ± 0.18
9,H40W,-0.608 ± 0.11
10,H38Y,-0.711 ± 0.14
11,H38V,-0.851 ± 0.088
12,H38D,-0.521 ± 0.14
13,H38E,-0.33 ± 0.092
14,H38F,-0.271 ± 0.2
15,H38S,-0.691 ± 0.097
16,H38C,-0.836 ± 0.24
17,H38G,-0.84 ± 0.09
18,H38A,-0.573 ± 0.085
19,H38I,-0.892 ± 0.26
20,H38W,-0.708 ± 0.1
21,H38Q,-0.562 ± 0.12
22,H38R,-0.591 ± 0.097
23,H38M,-0.717 ± 0.13
24,H38K,-0.607 ± 0.12

row,Variant,abundance fitness
1,H38T,-0.599 ± 0.14
2,H38N,-0.781 ± 0.25
3,W45G,0.236 ± 0.078
4,W45T,0.345 ± 0.1
5,W45D,0.479 ± 0.087
6,W45C,0.18 ± 0.12
7,W45A,0.282 ± 0.094
8,W45F,0.153 ± 0.089
9,W45R,0.111 ± 0.08
10,W45I,0.12 ± 0.1
11,W45S,0.292 ± 0.077
12,W45K,0.518 ± 0.12
13,W45Q,0.224 ± 0.094
14,W45L,0.122 ± 0.078
15,W45Y,0.256 ± 0.095
16,W45M,0.255 ± 0.12
17,W45P,0.346 ± 0.098
18,W45H,0.361 ± 0.12
19,A47H,-0.036 ± 0.36
20,A47D,0.438 ± 0.22
21,A47C,-0.591 ± 0.29
22,A47L,-0.493 ± 0.15
23,A47M,-0.025 ± 0.18
24,A47S,-0.565 ± 0.16

row,Variant,abundance fitness
1,A47W,-0.144 ± 0.33
2,A47G,-0.078 ± 0.16
3,A47P,0.019 ± 0.13
4,A47V,0.142 ± 0.16
5,A47N,-0.007 ± 0.28
6,A47R,0.04 ± 0.14
7,A47E,-0.375 ± 0.19
8,R41V,-0.607 ± 0.14
9,R41Q,0.09 ± 0.15
10,R41M,-0.39 ± 0.17
11,R41S,0.011 ± 0.12
12,R41A,-0.084 ± 0.12
13,R41E,-0.197 ± 0.14
14,R41C,-0.609 ± 0.17
15,R41W,-0.413 ± 0.2
16,R41G,-0.34 ± 0.12
17,R41T,-0.292 ± 0.16
18,R41Y,-0.659 ± 0.22
19,R41P,-0.364 ± 0.37
20,R41D,0.496 ± 0.39
21,R41F,-0.29 ± 0.19
22,R41K,-0.402 ± 0.47
23,E34V,-0.492 ± 0.09
24,E34T,-0.349 ± 0.1

row,Variant,abundance fitness
1,E34M,-0.496 ± 0.12
2,E34G,-0.492 ± 0.095
3,E34L,-0.659 ± 0.1
4,E34S,-0.281 ± 0.1
5,E34I,-0.818 ± 0.19
6,E34W,-0.928 ± 0.15
7,E34K,-0.246 ± 0.14
8,E34P,-0.834 ± 0.15
9,E34R,-0.557 ± 0.091
10,E34D,0.041 ± 0.12
11,E34N,-0.417 ± 0.15
12,E34F,-0.748 ± 0.17
13,E34C,-0.514 ± 0.17
14,E34Q,-0.41 ± 0.14
15,E34H,-0.046 ± 0.17
16,A46W,-0.156 ± 0.1
17,A46S,0.056 ± 0.089
18,A46N,-0.124 ± 0.12
19,A46R,-0.249 ± 0.083
20,A46I,-0.863 ± 0.28
21,A46V,-0.203 ± 0.085
22,A46K,-0.368 ± 0.16
23,A46P,0.2 ± 0.1
24,A46E,-0.076 ± 0.11

row,Variant,abundance fitness
1,A46F,-0.184 ± 0.19
2,A46D,0.09 ± 0.1
3,A46H,-0.276 ± 0.26
4,A46T,0.194 ± 0.12
5,A46G,0.056 ± 0.079
6,A46M,-0.008 ± 0.12
7,A46Q,-0.085 ± 0.14
8,A46L,-0.039 ± 0.089
9,S31Y,-0.244 ± 0.21
10,S31V,-0.122 ± 0.089
11,S31R,-0.017 ± 0.083
12,S31W,0.015 ± 0.093
13,S31T,-0.328 ± 0.13
14,I43Y,0.335 ± 0.29
15,I43T,-0.54 ± 0.4
16,I43E,0.24 ± 0.22
17,I43G,-0.215 ± 0.15
18,I43K,0.352 ± 0.27
19,I43A,0.405 ± 0.14
20,I43F,0.594 ± 0.35
21,I43W,-0.395 ± 0.23
22,I43M,-0.37 ± 0.2
23,I43S,-0.011 ± 0.27
24,I43P,-0.524 ± 0.49

row,Variant,abundance fitness
1,I43R,-0.385 ± 0.18
2,I43V,0.023 ± 0.2
3,Q33I,0.694 ± 0.3
4,Q33L,-0.012 ± 0.094
5,Q33E,0.081 ± 0.12
6,Q33W,-0.352 ± 0.096
7,Q33Y,0.159 ± 0.14
8,Q33T,-0.116 ± 0.11
9,Q33G,-0.151 ± 0.082
10,Q33H,-0.197 ± 0.19
11,Q33P,0.391 ± 0.13
12,Q33F,-0.237 ± 0.16
13,Q33D,-0.264 ± 0.23
14,Q33M,-0.257 ± 0.13
15,Q33V,0.01 ± 0.11
16,S32M,-0.141 ± 0.11
17,S32I,-0.947 ± 0.21
18,S32L,-0.313 ± 0.1
19,S32P,-0.442 ± 0.14
20,S32D,-0.041 ± 0.12
21,S32N,-0.134 ± 0.25
22,S32Q,-0.116 ± 0.11
23,S32W,-0.464 ± 0.13
